# Laboratory results: the supplement of paper PMC7125110
# ± gives the standard error. For some assays here: Fewer inactive variants are shown than the library holds.
# B1: glmS ribozyme (parent)
# chain: AUAAAAGCGCCAGAACUACAGAAAUGUAGUUGACGAGGAGGAGGUUUAUCGAAUUUUCGGCGGAUGCCUCCAAA
# How the values were obtained:
# Details in all cases: with glucosamine-6-phosphate
# glucosamine-6-phosphate [1] = variants of: B1; assay: kcat; higher = faster cleavage; RNA array
# Method in brief: (§1)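 kcat and KM were obtained from weighted Michaelis–Menten fits across concentrations of kobs values. Those came from one- or two-exponential decay fits to per-tile medians normalised to baseline and to non-cleaving reference variants. The variants were barcoded ribozymes transcribed in situ by E. coli RNA polymerase on sequenced MiSeq chips and tracked through a hybridised Cy3 probe at 37 °C, with 40 μM to 10 mM glucosamine-6-phosphate in HEPES/KCl/Mg(OAc)2 buffer flowed in.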
# glucosamine-6-phosphate [2] = variants of: B1; assay: self-cleavage kobs at 160 uM GlcN6P; higher = faster cleavage; RNA array
# Method in brief: as §1
# glucosamine-6-phosphate [3] = variants of: B1; assay: self-cleavage kobs at 40 uM GlcN6P; higher = faster cleavage; RNA array
# Method in brief: as §1
# glucosamine-6-phosphate [4] = variants of: B1; assay: self-cleavage kobs at 640 uM GlcN6P; higher = faster cleavage; RNA array
# Method in brief: as §1
# glucosamine-6-phosphate [5] = variants of: B1; assay: self-cleavage kobs at 2500 uM GlcN6P; higher = faster cleavage; RNA array
# Method in brief: as §1
# glucosamine-6-phosphate [6] = variants of: B1; assay: self-cleavage kobs at 10000 uM GlcN6P; higher = faster cleavage; RNA array
# Method in brief: as §1
# glucosamine-6-phosphate [7] = variants of: B1; assay: KM; higher = weaker cofactor use; RNA array
# Method in brief: as §1
Variant,kcat (glucosamine-6-phosphate [1]) [s⁻¹],self-cleavage kobs at 160 uM GlcN6P (glucosamine-6-phosphate [2]) [s⁻¹],self-cleavage kobs at 40 uM GlcN6P (glucosamine-6-phosphate [3]) [s⁻¹],self-cleavage kobs at 640 uM GlcN6P (glucosamine-6-phosphate [4]) [s⁻¹],self-cleavage kobs at 2500 uM GlcN6P (glucosamine-6-phosphate [5]) [s⁻¹],self-cleavage kobs at 10000 uM GlcN6P (glucosamine-6-phosphate [6]) [s⁻¹],KM (glucosamine-6-phosphate [7]) [µM]
C11A G60C,< 1e-05,< 1e-05,–,–,–,–,–
A12G A48G,2.09e-05 ± 3.3e-06,–,< 1e-05,–,–,–,–
U45G U54G,0.0116 ± 0.0048,0.000252 ± 9.5e-05,0.000213 ± 3.6e-05,0.00187 ± 0.00046,0.00436 ± 0.0015,0.0084 ± 0.0012,–
G40C U46A,0.000264 ± 7.1e-05,–,–,7.92e-05 ± 1.6e-05,0.000286 ± 4.6e-05,0.000207 ± 3.1e-05,–
U56G U69G C71U,4.56e-05 ± 1.5e-05,8.5e-05 ± 2.7e-05,–,3.88e-05 ± 1.7e-05,5.83e-05 ± 2e-05,–,–
G43U C67U C68U,4.99e-05 ± 2e-05,–,–,–,7.28e-05 ± 2.2e-05,3.53e-05 ± 1.7e-05,–
A15C A53U,0.00401 ± 0.00066,0.000395 ± 9e-05,9.37e-05 ± 1.2e-05,0.00119 ± 0.00025,0.00184 ± 0.00036,0.00391 ± 0.00049,1690 ± 400
U30A C71U,0.0039 ± 0.00081,0.000337 ± 8e-05,0.000127 ± 2.5e-05,0.00116 ± 0.00024,0.0021 ± 0.00045,0.00416 ± 0.00086,1470 ± 450
U65G C71U,0.00415 ± 0.00046,0.000189 ± 3.4e-05,5.93e-05 ± 7e-06,0.000688 ± 0.00013,0.00232 ± 0.00055,0.00316 ± 0.00037,2960 ± 430
A12C A48U,0.000191 ± 4.1e-06,–,–,3.34e-05 ± 9.3e-06,9.1e-05 ± 1.6e-05,0.000147 ± 1.6e-05,2890 ± 150
A53U U55A,0.026 ± 0.012,0.000887 ± 0.00017,0.000486 ± 8.9e-05,0.00403 ± 0.00095,0.00891 ± 0.0017,0.0215 ± 0.0042,–
G32A A33G,1.05e-05 ± 2.6e-06,–,< 1e-05,–,–,–,–
G66A C68A,0.000285 ± 7.9e-05,–,–,0.000138 ± 2.7e-05,0.000313 ± 5.4e-05,0.000216 ± 4.2e-05,–
U54G C70G,0.000119 ± 2.1e-05,0.000128 ± 1.7e-05,8.74e-05 ± 8.1e-06,0.000182 ± 2.2e-05,0.000182 ± 2.5e-05,9.76e-05 ± 9.2e-06,–
A15G C68G,0.000113 ± 3e-06,3.48e-05 ± 1.2e-05,–,7.26e-05 ± 1.2e-05,9.45e-05 ± 1.6e-05,0.000113 ± 1.7e-05,367 ± 35
